What was measured:
Assay in all cases: cross-linking; copper-phenanthroline (1 mM CuSO4/3 mM 1,10-phenanthroline) disulfide cross-linking of purified protein (1 mg/ml) in 20 mM HEPES pH 7.4, 150 mM NaCl, 1 mM TCEP, on ice 15 min; non-reducing SDS-PAGE; efficiency = dimer/(monomer + dimer)
[1] = target: GB1-TM-CC1 monocysteine variant A230C (not stated (human or mouse cDNA cloned)) (UniProt Q13586)
[2] = target: GB1-TM-CC1 monocysteine variant I222C (not stated (human or mouse cDNA cloned)) (UniProt Q13586)
[3] = target: GB1-TM-CC1 monocysteine variant G226C (not stated (human or mouse cDNA cloned)) (UniProt Q13586)

“GB1-TM-CC1 monocysteine variant A230C (from UniProt Q13586 209-310) (domain or fragment)” was tested, and the disulfide cross-linking efficiency [1] was > 70%.
In the case of “GB1-TM-CC1 monocysteine variant I222C (from UniProt Q13586 209-310) (domain or fragment)”, the disulfide cross-linking efficiency [2] is reported as > 70%.
“GB1-TM-CC1 monocysteine variant G226C (from UniProt Q13586 209-310) (domain or fragment)” was tested, and the disulfide cross-linking efficiency [3] was > 70%.
